According to article PMC5932559, “Defective mitochondrial protease LonP1 can cause classical mitochondrial disease” (Human Molecular Genetics, 2018):

B3: p.(Glu733Lys) LonP1 mutant lacking the mitochondrial targeting sequence, C-terminal 6xHis (enzyme, human, UniProt P36776-1 115-959, looked up)
chain: MTIPDVFPHLPLIAITRNPVFPRFIKIIEVKNKKLVELLRRKVRLAQPYVGVFLKRDDSNESDVVESLDEIYHTGTFAQIHEMQDLGDKLRMIVMGHRRVHISRQLEVEPEEPEAENKHKPRRKSKRGKKEAEDELSARHPAELAMEPTPELPAEVLMVEVENVVHEDFQVTEEVKALTAEIVKTIRDIIALNPLYRESVLQMMQAGQRVVDNPIYLSDMGAALTGAESHELQDVLEETNIPKRLYKALSLLKKEFELSKLQQRLGREVEEKIKQTHRKYLLQEQLKIIKKELGLEKDDKDAIEEKFRERLKELVVPKHVMDVVDEELSKLGLLDNHSSEFNVTRNYLDWLTSIPWGKYSNENLDLARAQAVLEEDHYGMEDVKKRILEFIAVSQLRGSTQGKILCFYGPPGVGKTSIARSIARALNREYFRFSVGGMTDVAEIKGHRRTYVGAMPGKIIQCLKKTKTENPLILIDEVDKIGRGYQGDPSSALLELLDPEQNANFLDHYLDVPVDLSKVLFICTANVTDTIPEPLRDRMEMINVSGYVAQEKLAIAERYLVPQARALCGLDESKAKLSSDVLTLLIKQYCRESGVRNLQKQVEKVLRKSAYKIVSGEAKSVEVTPENLQDFVGKPVFTVERMYDVTPPGVVMGLAWTAMGGSTLFVETSLRRPQDKDAKGDKDGSLEVTGQLGEVMKESARIAYTFARAFLMQHAPANDYLVTSHIHLHVPEGATPKDGPSAGCTIVTALLSLAMGRPVRQNLAMTGEVSLTGKILPVGGIKEKTIAAKRAGVTCIVLPAENKKDFYDLAAFITEGLEVHFVEHYREIFDIAFPDEQAEALAVER
notes: A variant found in a patient and in ExAC; also called E733K; hGlu733Lys

Assays:
TFAM = biological target: T1, TFAM (UniProt Q00059 43-246, NT-547-maleimide dye on cysteine (for microscale thermophoresis)); test: MST; 4 mM AMP-PNP
T1 chain: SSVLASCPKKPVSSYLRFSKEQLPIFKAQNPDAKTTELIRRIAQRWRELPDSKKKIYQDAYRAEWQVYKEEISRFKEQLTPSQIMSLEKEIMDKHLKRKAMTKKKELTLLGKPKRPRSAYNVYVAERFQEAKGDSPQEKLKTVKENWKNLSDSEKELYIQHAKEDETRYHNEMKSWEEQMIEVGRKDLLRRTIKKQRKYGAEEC

[1] = biological target: T2, 1:1 mixture of wild-type and p.(Tyr565His) LonP1, oligomerised by dialysis from high salt (human, UniProt P36776-1 115-959; P36776-1 115-959, p.(Tyr565His)); test: MST; as a3, with 4 mM AMP-PNP; LonP1 forms or 1:1 mixtures titrated (2.3-4650 nM) against labelled TFAM; 24°C; conditions: both partners purified
T2 construct: as the chain of m1; as the chain of m2; also called WT/Y565H; WT + Y565H; source: equimolar purified LonP1 forms mixed in high salt, oligomerised by dialysis

[2] = biological target: T3, 1:1 mixture of wild-type and p.(Glu733Lys) LonP1, oligomerised by dialysis from high salt (human, UniProt P36776-1 115-959; P36776-1 115-959, p.(Glu733Lys)); test: as above; conditions: both partners purified
T3 construct: as the chain of m1; as the chain of m3; The make-up of the oligomers (heterohexamers or separate homohexamers) was not determined; also called WT/E733K; WT + E733K; source: equimolar purified LonP1 forms mixed in high salt, oligomerised by dialysis

[3] = biological target: B3; test: MST; TFAM labelled with NT-547-maleimide, unlabelled LonP1 titrated (2.3-4650 nM); MST buffer (50 mM Tris-HCl pH 8.0, 10 mM MgCl2, 10% glycerol) without nucleotide; 24°C; Monolith NT.115; conditions: both partners purified
[4] = biological target: T4, wild-type LonP1 lacking the mitochondrial targeting sequence, C-terminal 6xHis (human, UniProt P36776-1 115-959); test: as above; conditions: both partners purified
T4 construct: called the mature protein; Hexamer at low salt with ATP, mostly monomer in 1 M NaCl without ATP; also called WT; LonP1 wild-type; source: pET-20b, induced with 1 mM IPTG, purified (His-Select nickel, HiTrap Heparin, MonoQ, Superdex 200)
T4 sequence (looked up): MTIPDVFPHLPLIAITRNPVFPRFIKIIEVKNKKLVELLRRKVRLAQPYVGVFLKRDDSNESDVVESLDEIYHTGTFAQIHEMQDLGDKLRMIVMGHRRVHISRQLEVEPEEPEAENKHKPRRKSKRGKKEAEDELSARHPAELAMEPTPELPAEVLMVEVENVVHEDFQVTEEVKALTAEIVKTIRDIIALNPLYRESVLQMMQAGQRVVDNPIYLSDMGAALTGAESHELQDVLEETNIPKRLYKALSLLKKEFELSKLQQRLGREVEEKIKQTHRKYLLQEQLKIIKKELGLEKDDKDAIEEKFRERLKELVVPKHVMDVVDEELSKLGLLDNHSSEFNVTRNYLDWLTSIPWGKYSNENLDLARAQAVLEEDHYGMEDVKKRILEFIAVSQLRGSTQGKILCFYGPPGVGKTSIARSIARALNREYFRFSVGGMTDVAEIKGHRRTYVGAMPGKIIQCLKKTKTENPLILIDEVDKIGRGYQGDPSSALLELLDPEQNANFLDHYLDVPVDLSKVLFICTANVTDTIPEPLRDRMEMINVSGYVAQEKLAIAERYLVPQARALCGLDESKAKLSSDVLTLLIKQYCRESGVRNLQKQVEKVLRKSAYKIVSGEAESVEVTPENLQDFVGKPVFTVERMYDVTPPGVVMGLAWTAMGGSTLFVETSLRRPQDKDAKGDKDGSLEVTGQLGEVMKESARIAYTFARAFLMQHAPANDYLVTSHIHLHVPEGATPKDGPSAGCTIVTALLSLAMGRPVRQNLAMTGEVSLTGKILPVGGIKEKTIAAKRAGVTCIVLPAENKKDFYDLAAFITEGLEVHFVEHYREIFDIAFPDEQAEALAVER

[5] = biological target: the molecule itself; test: SEC; Superose 6 Increase 10/300; 20 mM Tris-HCl pH 8.0, 10% glycerol, 2 mM DTT, 50 mM NaCl, 10 mM MgCl2, samples incubated 10 min at 37°C with ATP (1 mM in the methods, 4 mM in the legend); fractions on SDS-PAGE, size calibration curve; in 1 M NaCl without ATP higher-order oligomers were largely prevented

B1: wild-type LonP1 lacking the mitochondrial targeting sequence, C-terminal 6xHis (enzyme)
chain: MTIPDVFPHLPLIAITRNPVFPRFIKIIEVKNKKLVELLRRKVRLAQPYVGVFLKRDDSNESDVVESLDEIYHTGTFAQIHEMQDLGDKLRMIVMGHRRVHISRQLEVEPEEPEAENKHKPRRKSKRGKKEAEDELSARHPAELAMEPTPELPAEVLMVEVENVVHEDFQVTEEVKALTAEIVKTIRDIIALNPLYRESVLQMMQAGQRVVDNPIYLSDMGAALTGAESHELQDVLEETNIPKRLYKALSLLKKEFELSKLQQRLGREVEEKIKQTHRKYLLQEQLKIIKKELGLEKDDKDAIEEKFRERLKELVVPKHVMDVVDEELSKLGLLDNHSSEFNVTRNYLDWLTSIPWGKYSNENLDLARAQAVLEEDHYGMEDVKKRILEFIAVSQLRGSTQGKILCFYGPPGVGKTSIARSIARALNREYFRFSVGGMTDVAEIKGHRRTYVGAMPGKIIQCLKKTKTENPLILIDEVDKIGRGYQGDPSSALLELLDPEQNANFLDHYLDVPVDLSKVLFICTANVTDTIPEPLRDRMEMINVSGYVAQEKLAIAERYLVPQARALCGLDESKAKLSSDVLTLLIKQYCRESGVRNLQKQVEKVLRKSAYKIVSGEAESVEVTPENLQDFVGKPVFTVERMYDVTPPGVVMGLAWTAMGGSTLFVETSLRRPQDKDAKGDKDGSLEVTGQLGEVMKESARIAYTFARAFLMQHAPANDYLVTSHIHLHVPEGATPKDGPSAGCTIVTALLSLAMGRPVRQNLAMTGEVSLTGKILPVGGIKEKTIAAKRAGVTCIVLPAENKKDFYDLAAFITEGLEVHFVEHYREIFDIAFPDEQAEALAVER
Work on B1 yielded a Kd (TFAM) of 2200 nM.

B2: TFAM (natural protein, UniProt Q00059 43-246, looked up)
chain: SSVLASCPKKPVSSYLRFSKEQLPIFKAQNPDAKTTELIRRIAQRWRELPDSKKKIYQDAYRAEWQVYKEEISRFKEQLTPSQIMSLEKEIMDKHLKRKAMTKKKELTLLGKPKRPRSAYNVYVAERFQEAKGDSPQEKLKTVKENWKNLSDSEKELYIQHAKEDETRYHNEMKSWEEQMIEVGRKDLLRRTIKKQRKYGAEEC
modifications: NT-547-maleimide dye on cysteine (for microscale thermophoresis)
notes: TFAM, the mitochondrial transcription and mtDNA packaging factor and a LonP1 substrate; recombinant; It was unlabelled in the proteolysis assays; also called TFAM substrate
Binder B2 has a Kd [1] of 3220 nM, a Kd [2] of 2170 nM and a Kd [3] of 1520 nM. The Kd [4] was 1360 nM.

With B3 the “stoichiometry N” value [5] was 6.

B4: p.(Tyr565His) LonP1 mutant lacking the mitochondrial targeting sequence, C-terminal 6xHis (enzyme, human, UniProt P36776-1 115-959, looked up)
chain: MTIPDVFPHLPLIAITRNPVFPRFIKIIEVKNKKLVELLRRKVRLAQPYVGVFLKRDDSNESDVVESLDEIYHTGTFAQIHEMQDLGDKLRMIVMGHRRVHISRQLEVEPEEPEAENKHKPRRKSKRGKKEAEDELSARHPAELAMEPTPELPAEVLMVEVENVVHEDFQVTEEVKALTAEIVKTIRDIIALNPLYRESVLQMMQAGQRVVDNPIYLSDMGAALTGAESHELQDVLEETNIPKRLYKALSLLKKEFELSKLQQRLGREVEEKIKQTHRKYLLQEQLKIIKKELGLEKDDKDAIEEKFRERLKELVVPKHVMDVVDEELSKLGLLDNHSSEFNVTRNYLDWLTSIPWGKYSNENLDLARAQAVLEEDHYGMEDVKKRILEFIAVSQLRGSTQGKILCFYGPPGVGKTSIARSIARALNREYFRFSVGGMTDVAEIKGHRRTHVGAMPGKIIQCLKKTKTENPLILIDEVDKIGRGYQGDPSSALLELLDPEQNANFLDHYLDVPVDLSKVLFICTANVTDTIPEPLRDRMEMINVSGYVAQEKLAIAERYLVPQARALCGLDESKAKLSSDVLTLLIKQYCRESGVRNLQKQVEKVLRKSAYKIVSGEAESVEVTPENLQDFVGKPVFTVERMYDVTPPGVVMGLAWTAMGGSTLFVETSLRRPQDKDAKGDKDGSLEVTGQLGEVMKESARIAYTFARAFLMQHAPANDYLVTSHIHLHVPEGATPKDGPSAGCTIVTALLSLAMGRPVRQNLAMTGEVSLTGKILPVGGIKEKTIAAKRAGVTCIVLPAENKKDFYDLAAFITEGLEVHFVEHYREIFDIAFPDEQAEALAVER
notes: A variant found in a patient and in ExAC; also called Y565H; hTyr565His
With B4 the “stoichiometry N” value [5] was 6.
